The source of these data is a protein production outcome set (Wang et al. 2014).

The data set is described as follows: label from the status in PepcDB records.
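Note: failed if final PepcDB status was selected cloned or expressed and not failed if soluble or beyond.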

For “MLVNGKWTADWQPVQKADDHGRFVRQVSSFRNWITPDGSAGPTGTGGFAAEAGRYRLYVALICPWASRTLMARRLKGLDGLIPVTVVNPVMGTQGWEFGGHDDAEEDPLFGARHLHEIYTRAEPQFTGRATVPVLWDMKRDAMVNNESADILRMFDTAFEGLAPSDLRLYPAALAGEIDALNAQVYDRLNNGVYKAGFASTQEAYDEAVAGVFEMLDHLEYRLTGDYIFGGALTETDIRIFVTLIRFDAAYHGLFKTNRRQIADYPRLWAYMRRILARPGVRETVNMDHITRGYYSIKALNPSRIRPVGPAHIEAALRETAAGI”, the protein production entry is “not failed”. In the case of “MLVQAIMTSPAITVTASASVAEAARLMLDNRISGLPVVGANGALVGIVSEGDFLRRSELSTERKRSWLLEWLTSSGRIAAEYVRTHGRRVEEVMTAPVSAIAPTASLSDAVRLMERQEIKRLPVVEGGRLVGIVARSDLLRALSQALPATSTSAGDAQIQAAIEAALAKQSWSRNGFIHSRVTDGIAELTGTVFDERERLAAKVAVENVAGVTSVKDQLVWVDPYYGIALPPPDAETSQA”, the protein production result is reported as “failed”. As for “MLVRTLSALECTKVLTANRVGRLACAKDGQPYVVPLYYAYSDAHLYAFSMPGKKIEWMRANPRVSVQVDEHGQGRGWKSVVVDGRYEELPDLIGHKLQRDHAWSVLSKHTDWWEPGALKPVTPPTADSAPHVFFRILIEQVSGREASE”, the protein production result is on record as “not failed”. Consider “MLVTSLVVKPALSTTLKMCTFSTLSAFVLTACSGNAETTNVAEIQHDMGSATAAASPKATAPEGTVLKRSAIDALQTVGNSIGIKIGSHLELGSAADFEKGNTTKVSIDAECFDMTSSSKAFIVACSDGVHSVDPVSGKNSVIAQPTETAHYAVQVSTGEVLVAHRDSNKVEVFNDGEKLSEVATEYGSDQLISVPIEGQADAVVRINNKYTLIQDVNWKESKPGAILRVGKGVGRISAAKQGVVLASDAKKNQFAVYGAKDVIRLHQTSPTGPSPWGITWDNKHDLAWVATTGDNKVTGYDISSGTGSEKSSYNTIENVHNIAVLDDGTLVLASASGAGLQLVKSQTD”, for which the protein production result is reported as “failed”. With “MLVWEELREKALNKIYHDKEIGYLDPDILGFLLAFYRNRNDVYTQSSCSGRITIVDAEMPWDRKNSTIIFKNHLRITEQDLEDVLSKNQVRRLWLIVQGPIIHIYAKNIETGWDILKIAREAGFKHSGILATNQKGVLVELRTGIRMVHLLRESNTERVDKDKIKTLVNVCNEVLARGKQKMNLLKDLLSSSSNNSMELGKNSKLKTPI” the entry was “not failed”; with “MLWRKRLFAHLYPGLSARHEALVAERKRALFREALRRARPERVLEIGPGPGTNLAHLPEGVAYLALEPNPFFHPRLREEARKRGLALTLLPGRAEAIPLPGGSVDLVVATLVLCSVADPEKAIEEVHRVLRPGGAYLFLEHVAAPKGAPLRLLQEAATPFFVFFGDGCHPNRKTLAQIQARFPRVEAEAFSLPLPVVAPHVAGLAFKELEHHHHHH”, “failed”. “MLYIFTPTFNRGYRLSYLYDSLCNQTNKNFIWLIVDDGSEDSTKEIVSNYIKENKVSIVYLYKRNGGKHSAYNLAMRYMQPSDYHVCVDSDDWLLEDAVEIIFKDLESLTLSNRYVGLVYPRYSLNQGNNWLNPKILEVNIPDLKYKYHLKIETCIVINNAYLVDFEFPCFEGENFLSEEIMYIYLSKKGYFCPQNRKIYCFDYLEDGLTSNIFKLWRKNFKGTIFSLENSYMYVMSFPNIFDRWWSAIKIKMNIQALKMTTLGVIPTLKSEEAGWKILLGFSYLWKVARFKKSELEHHHHHH”: the protein production entry was “not failed”. With “MMDTVKNRRTIRKYQQKDITPDLLNDLLETSFRASTMGGMQLYSVVVTRDAEKKEILSPAHFNQPMVKEAPVVLTFCADFRRFCKYCQERNAVPGYGNLMSFLNAAMDTLLVAQTFCTLAEEAGLGICYLGTTTYNPQMIIDALHLPELVFPITTVTVGYPAESPKQVDRLPIEGIIHEESYHDYTAEDINRLYAYKESLPENKLFIEENQKETLPQVFTDVRYTKKDNEFMSENLLKVLRRQGFMD” the entry was “not failed”; with “MMDYALLSLMLLFTLLLAFILTRLKVSPVIAYLLGGLISFNYFHFDFNSSYFEILNFLALNLLAFEIGTSFDISRAKELFRRAMGIALTELILIVLISYFIGLYLLHLDLFASLFLVMASIDTSTSILYKIIGNKVDKNDRDLLVAVASVEDIEVFFLYSIAIALNGSFNVFRISFVILEVFIASLIIYAFAKYFLTGLSIFKFTSFEDESILILVPIVLVFVFEYISQVTQVPATLTMILAGIAFSSISGSEKVLRYTGPIREFSLIFFFLSVGSYLKITAGISTFVLISFIILAIKYFSFSTASWVSGTTLVKAFTNGLYMLPLSEFGIIVSLQALQQGIDIAIVYYISVVVVLVSSIIASILAVRVNVLQRVIGIVYSRSYFLRQLDSTIIWLNKTLSTNLSPILRSVLFRGFVKMFLYLILPYVLFPIINSIVKSIIDPINNLILQYLLYSGEIVIALFLLYLFLLEGSRLYSIINNEILVRIVRVRSRLFKEFWFGLTSFSSTFYTIILTIIYIIFEIIPLLYNFPIRLVFVPLLISLYFIYRYRAPPITYTRIDNKEADKIVKLSVKVIKKMRKRRSKRSIISTTKTVRREWS”, “failed”; with “MMEFNVAENGGGSYRPLAILRWVMVVIFVSFGMQKFTLQSAQGIAQFITNSPFISWLSIFGLRGEAYVLGVAEFAIAALLAAGSFSPVLSAVGSFMGVVTFAITWSFFFTTPGVVTWSLSSDPMAWNLTGEFLFKDIVLLCVCAVLFLASLPRSAIRLRTG”, “failed”. As to “MMEKYNKFDLLWLLVPLSGLIVMGLMAVYSATNGSTESVPLFYKQLSWAVTGAIAASIIYFMDYRVVKDNAYFMYAAGIILLIAVLVFGKKVAGATSWVRFGMFSFQPSELTKMFTIIAMARFLSDDQTDIGNMMDLGKALAIALVPAGLIMLQPDMGTTLTCLSFIVPMIVLAGFDLYYILLGVVPVALMLSGFFNLTILATIAVLSMVMFFLLRKKFYLHQFLVTGGGLLGGLLTWKFTSVILKPHQIKRIQIFLDPTADPRGAGYNALQAKIAIASGGIFGKGFLHGTQTQLRYIPAQWTDFIFCVIAEELGFLGSTLLLLLFAALVLRLVWMVGAIKNRFVELLLAGYASLLLTHVVINIGMTIGVMPVIGVPLPFISYGGSSLVANMMMVGLAMNFSKNRRHIGY”, the protein production entry is recorded as “failed”. In the case of “MMEQEIWVRVTRAAAKRKASTAMGIDEDRLNKKRVFLGELLNVSNVNLLSNLN” it was “failed”; in that of “MMFDFDKIIERQSDKCRKWDHAFVCSRFGDVPESFIPLWIADMDFTSPPAVIDGFRRIVEHGTFGYTWCFDEFYDAVIAFQRKRHQVEVEKSWITLTYGTVSTLHYTIQAYCKPGDSVMMNTPVYDPFAMAAQRQGVQVLANPLRVEENRYQLDFNLIEEQLKTYRPTLWFFCSPHNPSGRIWREEEIRQVSDLCQRYGTILVVDEVHAEHILDGKFVSCLTSGCAAQDNLIVLTSPNKALKLGGLKTSYSMIPDDSLRQRFRQQLEKNSITSPNLFGVWGIILAYQHGLPWLDALNDYLQGNARYLADALQTHFPAWKMMTPESSYLAWIDVSADESSATQLTQHFARQAGVVIEDGSHYVQNGENYLQINFGSQRYWLERSTNRMQ”, “failed”; in that of “MMFEGIRIARQMGHNIAIVSPRVDVIIEISHRIKDAFIDEHIDVLHQSSRQQYNGHFVIATIHQLLRFKQHFDTVFVDEVDAFPLSMDPQLSNAIQLASKSNHSHIFMTATPPRHFLKQFPPEKIIKLPARFHRSPLPIPKFKYFKLKSTRKQNLLLNIFRYQINQQRFTLVFINNIEIMNKMYQQYKMDIPDLICVHSEDDLRFEKIEALRRGQHKIVFTTTILERGFTMTHLDVVVVDAGSFQQEALIQIAGRVGRKQQSPSGLVLFLHEGVTLSMILAKRNIISMNRLAIKRGWIDA”, “failed”.

Regarding “MMFGRFSDRAQKMIYYAQEEAQNFKHGYVGTEHILLGILRDENGKAQSLLANMGVTIEKVRRLIEEYEGFGDSDLYKEEPPLTPRTKRLLEISLLEARNLNHNYINPEHVLLALIRESEGVAFTILGNLGVDFERLRKEILDSLS”, the protein production entry was “failed”. As for “MMILAWILVIIIISVITKWVVHLLTQRQSIYLTKLVITTSCIIQFIIVFFLMKAIVHYLAQALDVFYR”, the protein production result is “failed”.
